The results in this text go back to US20250387474A1 (MEDICENNA THERAPEUTICS, published 2025).

The Kd is the constant that tells how readily two partners part at equilibrium.

In the test the target is T1, MDNA132LR-Fc (1:1 KIH) (Homo sapiens (Human), UniProt P0DOX5 223-448 = IgG part).
T1 construct: also called MDNA132^L39/R111-Fc (1:1 KIH); MDNA132-Fc
The test can be described thus: SPR, construct captured on anti-human IgG (Fc) antibody on a CM5 chip, human receptor as analyte. (Surface plasmon resonance follows binding to a sensor surface in real time, without labels.)

B1: human IL-13Rα2 (receptor, UniProt Q14627 27-343, looked up)
chain: DTEIKVNPPQDFEIVDPGYLGYLYLQWQPPLSLDHFKECTVEYELKYRNIGSETWKTIITKNLHYKDGFDLNKGIEAKIHTLLPWQCTNGSEVQSSWAETTYWISPQGIPETKVQDMDCVYYNWQYLLCSWKPGIGVLLDTNYNLFYWYEGLDHALQCVDYIKADGQNIGCRFPYLEASDYKDFYICVNGSSENKPIRSSYFTFQLQNIVKPLPPVYLTFTRESSCEIKLKWSIPLGPIPARCFDYEIEIREDDTTLVTATVENETYTLKTTNETRQLCFVVRSKVNIYCSDDGIWSEWSDKQCWEGEDLSKKTLLR
notes: also called Human IL-13 R alpha 2 Protein; IL-13 decoy receptor
Molecule B1 displayed a dissociation constant Kd of 3.6 nM.

B2: human IL-13Rα1 (receptor)
chain: GGGGAAPTETQPPVTNLSVSVENLCTVIWTWNPPEGASSNCSLWYFSHFGDKQDKKIAPETRRSIEVPLNERICLQVGSQCSTNESEKPSILVEKCISPPEGDPESAVTELQCIWHNLSYMKCSWLPGRNTSPDTNYTLYYWHRSLEKIHQCENIFREGQYFGCSFDLTKVKDSSFEQHSVQIMVKDNAGKIKPSFNIVPLTSRVKPDPPHIKNLSFHNDDLYVQWENPQNFISRCLFYEVEVNNSQTETHNVFYVQEAKCENPEFERNVENTSCFMVPGVLPDTLNTVRIRVKTNKLCYEDDKLWSNWSQEMSIGKKRNST
notes: also called Human IL-13 R alpha 1 Protein; IL-13 functional receptor
Consider B2, for which the binding result is given as “no binding (tested: 1000 nM)”.
